Experimental data published in the supplement of paper PMC10567573.
± gives the standard deviation.

Assay: protein stability index of a GFP-peptide fusion (GPS, HEK-293T) (PSI 1-6); higher = more stable
[1] = treatment: DMSO, c terminus: a fixed tail appended
[2] = treatment: MLN4924 1 uM, 8 h, c terminus: a fixed tail appended
[3] = treatment: DMSO, c terminus: native
[4] = treatment: MLN4924 1 uM, 8 h, c terminus: native
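Note: 24-mer peptide tiles fused after GFP, lentivirally expressed, FACS-sorted into six equal bins by GFP/DsRed ratio, decoded by Illumina sequencing, PSI is the read-weighted mean bin number.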

Sequence	protein stability index [1]	protein stability index [2]	protein stability index [3]	protein stability index [4]
SRSPLKIVKKPKSMQCKVILLDGS [EPB41L3]	2.52 ± 0.081	2.51 ± 0.29		
ISGGVHNGEYVPWLYCYDPVMDVW [KLHL14]	2.32 ± 0.33	2.59 ± 0.73		
SCSSDGGIAVWNMDVSREEAPQWL [WDFY1]	3.07 ± 0.09	3.08 ± 0.23		
NSKKEEPQELLQSQDFVGEKLGSG [ATE1]	5.51 ± 0.11	5.42 ± 0.23		
GIFLFCVCVIAIGVVQALIVGYAF [TMEM175]	2.6 ± 0.56	2.33 ± 0.56		
RHLRSAHRRELESSGAGSSPPAAP [ZBED3]	5.09 ± 0.36	5.1 ± 0.28		
NWPKNSNGVTQKASAPTYPSLYSS [NANOGP8]	3.53 ± 0.21	3.65 ± 0.25		
KQPNCSSLFKLKPLSNKTATDDTG [PLD5]	4.46 ± 0.13	4.772 ± 0.045		
MSSEVSARRDAKKLVRSPSGLRMV [ZFYVE21]	3.67 ± 0.091	3.58 ± 0.28		
LTPHIVQYQANKVTHTLTMRQRIS [PPEF2]	2.89 ± 0.28	3 ± 0.17		
QYEEIALKSKAEAEALYQTKFQEL [KRT71]	4.08 ± 0.35	4.18 ± 0.15		
TSGQVVAVKKFVESEDDPVVKKIA [CDKL4]	4.66 ± 0.06	4.82 ± 0.35		
MKQRDNCKIRIQRQLEIMGKEVSG [STX11]	3.27 ± 0.18	3.39 ± 0.33		
QEFSDVERAIETLIKNFHQYSVEG [S100A14]	2.33 ± 0.33	2.59 ± 0.43		
VCSDKRIPGFKFDNSLINQIENLN [LOXL2]	2.56 ± 0.26	3.01 ± 0.25		
QLKRQKRDYIHSLKLLNVLEEYIT [FAM9B]	2.28 ± 0.55	2.56 ± 0.42		
ILIASRDIAAGEELLYDYGDRSKA [KMT5A]	3.44 ± 0.45	3.64 ± 0.65		
QIMQGLEHPFLVNLWYSFQDEEDM [STK32A]	2.19 ± 0.37	2.37 ± 0.36		
LMSYERRQILHLITMMALKVLGEL [TENT5D]	2.67 ± 0.24	2.39 ± 0.31		
QFLDIGPDVTRVGLLQYGSTVKNE [MATN2]	3.55 ± 0.14	3.65 ± 0.45		
KATEPTETVQTWIELLTGETWNPF [GOLPH3L]	2.36 ± 0.13	2.5 ± 0.34		
LADDHLIEVNGENVEDASHEEVVE [PDZK1]	5.65 ± 0.1	5.54 ± 0.24		
ASGHEPGGSAVCASRVKLQHLPAQ [PLEKHN1]	4.11 ± 0.27	3.95 ± 0.14		

Sequence	protein stability index [1]	protein stability index [2]	protein stability index [3]	protein stability index [4]
RRVLQGLEIELQSQLSMKASLENS [KRT16]	2.8 ± 0.21	2.89 ± 0.4		
GWPHEDAAQFTDFLIPMLEMVPEK [SRPK2]	3.83 ± 0.26	4.01 ± 0.1		
ALVSHPEVPLISFTGSQPTAERIT [ALDH8A1]	3.87 ± 0.2	3.87 ± 0.31		
QLQRSWVKMDQKSKHLKEMYQELM [TRIM43]	2.36 ± 0.4	2.55 ± 0.75		
SLQKLSTKLSAQSAQYSQQLQAAR [FCHSD1]	3.34 ± 0.18	3.54 ± 0.22		
IETLIRDMLLSGSSFNWPYMAIQ [NR2F2]			3.02 ± 1.2	2.64 ± 0.41
IKDQGGAGEGLVRSANGFPYREDE [MAP2]	5.13 ± 0.3	5.18 ± 0.28		
SCLSSQSSALSQSGGGSTSAAGIE [SPACA3]	4.78 ± 0.13	4.82 ± 0.063		
RVIACQKTAHDSNVLHVARLPNRQ [WDR41]	3.52 ± 0.18	3.65 ± 0.27		
HARLSDIWAKTPPITRKAAQLYTL [DHCR7]	2.29 ± 0.22	2.3 ± 0.29		
PADSAQLLSLNSLLPESGIVADIE [TFE3]	4.93 ± 0.19	5.1 ± 0.19		
VTSQERHCLQQRRKSVPGPGNRTC [ADAMTSL2]	4.92 ± 0.42	4.824 ± 0.006		
QDSTRTVGERLQDTHSWKSELQRE [TEKT4]	4.88 ± 0.36	4.96 ± 0.27		
CEIQVRTLASAGGPDNLVLLNPEK [ADD1]	3.42 ± 0.42	3.45 ± 0.26		
CIENNIDLQVNRNFSLATNTKYSV [R3HDM1]	2.59 ± 0.24	2.31 ± 0.43		
QHGFFRRTADEATNTGPAGSSAST [DYRK1B]	5.02 ± 0.19	4.93 ± 0.16		
KELILDKVYTHPKWNTQTKARSYS [ZC2HC1C]	2.91 ± 0.44	3.44 ± 0.46		
IEDTPLVPVSFIFIFTFVKKKKIG [PCDHGA10]	2.29 ± 0.55	3.12 ± 0.37		
CAVTFFTILLSYGVILHSLKTQSL [OR4A15]	3.59 ± 0.13	3.62 ± 0.69		
ELALALKGNTTLQQLDLRWNNVGL [LRRC45]	2.19 ± 0.42	2.07 ± 0.35		
GCQPEDRRRRIIINVGGIKYSLPW [KCNG1]	2.36 ± 0.52	2.5 ± 0.44		
IFEETLNILIYETPRGPDPALLEA [KCTD13]	2.47 ± 0.51	2.63 ± 0.28		
MENKAMYLHTVSDCDTSSICEDSF [SCARA5]	4.46 ± 0.17	4.49 ± 0.22		

Sequence	protein stability index [1]	protein stability index [2]	protein stability index [3]	protein stability index [4]
QFSRGDFVVEYHGDLIEITDAKKR [KMT5A]	4.13 ± 0.93	4.15 ± 0.059		
YGLDSVKKKCLEWLLNNLMTHQNV [GMCL1]	3.09 ± 0.26	2.73 ± 0.21		
QGQYETIERLRSLSPKIMQEAFLV [TBC1D10A]	2.32 ± 0.21	2.22 ± 0.27		
ASAGKRRCFWLGMEGLETAEGSNS [SDE2]	3.62 ± 0.26	3.84 ± 0.45		
MSVSEIFVELQGFLAAEQDIREEI [TSN]	2.39 ± 0.42	2.72 ± 0.26		
ANISIANKYDNTCLMIAAYKGHTD [FEM1B]	2.75 ± 0.17	2.98 ± 0.32		
VISPMYQLHKPLAEGTPRSNHSAQ [IKZF1]	3.76 ± 0.32	4.06 ± 0.31		
TRPSGNNGNRRRRKLRKTVNGDGS [PHTF1]	4.83 ± 0.2	5.03 ± 0.12		
SPSRAPGLRQRASNKVQDSAPVET [HMOX1]	5.01 ± 0.27	5.22 ± 0.2		
LLHNDEYQETMVESTFMYLTLDLP [USP39]	2.31 ± 0.29	2.29 ± 0.34		
TPLIQQRARDSPEPGAGLGIGDMA [PSD2]	4.55 ± 0.24	4.37 ± 0.12		
APMVAGALARLGTVTVISPLELMR [SLC25A39]	2.35 ± 0.22	2.41 ± 0.32		
YYFIMACDQYSCALTGPVVDIVTG [DHCR7]	3.35 ± 0.17	3.26 ± 0.53		
LDISDSISESGGLNWKMTLCLLVA [SLC6A17]	2.54 ± 0.48	2.5 ± 0.79		
YLCKRVPHTVLDRQLLCLIDYYES [CEP70]	2.1 ± 0.58	2.21 ± 0.32		
TRWLNSGRGDEASEEGQNGSSPKS [ADD1]	5.4 ± 0.12	5.44 ± 0.24		
DGVKESSESTNTTIEDEDTKVRKQ [CAMK2A]	5.65 ± 0.13	5.59 ± 0.29		
PPTSGCLGPVPREDQAEAWGCSCC [TSPAN10]	4.8 ± 0.3	4.74 ± 0.24		
LELNFKAGDVIFLLSRINKDWLEG [NCF4]	2.77 ± 0.7	3.09 ± 1.6		
SDAGSPSLHKHLTIRLNISDVNDN [PCDHGC5]	3.73 ± 0.17	3.71 ± 0.24		
IDREVDLMMRGVKHHNLEGLRKRI [IQUB]	3.29 ± 0.32	3.62 ± 0.27		
DLLCKTSHLSDTGISALVEIPKNC [WDR41]	2.8 ± 0.23	2.78 ± 0.34		
HTVGVLFNNGAHMSLLPDKKTVHY [PLK2]	2.65 ± 0.33	2.66 ± 0.22		

Sequence	protein stability index [1]	protein stability index [2]	protein stability index [3]	protein stability index [4]
ATEWQKAGAPPPSGSAVSTAPQQK [SRPK2]	5.42 ± 0.14	5.18 ± 0.21		
TGELETLKERCAQDACQAQAREKE [CCDC89]	5.46 ± 0.31	5.39 ± 0.2		
RYFSLSLMSGALAVNQKIDRESLC [PCDHGC5]	2.03 ± 0.21	2.1 ± 0.28		
GGAVVANYPYDKSFEHRVRGVRRT [CPN1]	4.25 ± 0.29	4.29 ± 0.15		
GMNGQMLCNLGKERFLELAPDFVG [ETS2]	2.89 ± 0.32	2.91 ± 0.21		
AFDFDYGNCKYKVDCACLKENPEC [KMT2E]	3.53 ± 0.17	3.54 ± 0.42		
QRLEEETRKREDAEHNLVLFRKDV [PRPH]	5.12 ± 0.18	5.13 ± 0.17		
KEIQYLKDLIEEVRKARGKKRVP [ATF4]			2.52 ± 0.47	2.33 ± 0.47
STWLILHHKVYDLTKFLEEHPGGE [CYB5A]	2.17 ± 0.29	2.21 ± 0.32		
PQQPVMFAQPMMRPPFGAAAVPGT [SNAP91]	3.75 ± 0.16	3.76 ± 0.3		
SDLSRSSRGELIPISPSTEVGGSG [MYBL2]	5 ± 0.4	4.86 ± 0.34		
IEELCQKREELCRQIQEEEDEKQR [SSNA1]	5.43 ± 0.1	5.52 ± 0.12		
TLEELLPPNTRVLRVLPNLPCVVQ [PYCR3]	2.28 ± 0.28	2.1 ± 0.38		
ASVTIQARAEQEEEFISNTLFKKI [CCDC6]	3.54 ± 0.14	3.81 ± 0.12		
QAGDKDLDGQLDFEEFVHYLQDHE [SLC25A25]	5.19 ± 0.23	4.96 ± 0.23		
WKESKGKDREYTDIIRKQVLGTKV [CDC34]	3.66 ± 0.17	3.7 ± 0.4		
EDSLAALSSVPSEAQISDPFAPEP [SNAP91]	5.33 ± 0.34	5.34 ± 0.18		
YFTDLFDYLPLTALVDGQIFCLHG [PPP2CA]	3.22 ± 0.39	2.91 ± 0.3		
NSLEMTPAVRQRVIEEAKTAFLLN [HMOX1]	3.67 ± 0.2	3.63 ± 0.31		
ASAAAATAAFTTAKAAALSTKTPA [SPAG8]	4.48 ± 0.26	4.57 ± 0.2		
